Assay results published in PMC13696528 (2026).
No end group written: not given here.

Biological target: PD-L1 (UniProt Q9NZQ7)
Test: SPR

Chain of PD-L1 (Q9NZQ7 19-238): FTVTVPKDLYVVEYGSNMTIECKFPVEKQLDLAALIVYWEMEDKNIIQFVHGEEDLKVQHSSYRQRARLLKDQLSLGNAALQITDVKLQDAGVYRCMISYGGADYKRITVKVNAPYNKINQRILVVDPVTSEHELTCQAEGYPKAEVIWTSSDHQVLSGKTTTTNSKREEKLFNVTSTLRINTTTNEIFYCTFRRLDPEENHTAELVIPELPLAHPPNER

B1: PSP (PSP@IR-CF3 nanofiber) (peptide)
chain: NTGYFYGDQ
modifications: also: co-assembled nanofiber with IR-CF3
For B1, the Kd was 27.8 nM.
